Data from paper PMC12705702, “Structural insights into the atypical filament assembly of pyrin domain-containing IFI16” (The EMBO Journal, 2025).

Molecular target: the molecule itself
Assay: cryo-EM structure; filament auto-assembled by recombinant IFI16^PYD; 73 uM in 40 mM HEPES pH 7.4, 160 mM NaCl, 1 mM EDTA, 1 mM DTT; helical reconstruction, 3.3 Å

B1: human IFI16 pyrin domain (IFI16^PYD, residues 1-94) with C-terminal His6-tag (domain or fragment, UniProt Q16666 1-94, looked up)
chain: MGKKYKNIVLLKGLEVINDYHFRMVKSLLSNDLKLNLKMREEYDKIQIADLMEEKFRGDAGLGKLIKIFEDIPTLEDLAETLKKEKLKVKGPAL
notes: Interferon-inducible protein 16 (IFI16), human, pyrin domain, residues 1-94; Assembles into a helical filament; the number of protomers in a filament is open-ended; also called recombinant IFI16^PYD; pET21b IFI16^PYD-His6; source: E. coli BL21(DE3), purified (Ni-NTA, Superdex 75 size exclusion)
Q: Does B1 bind?
A: Result: binds
